This note sets out measurements from the supplement of paper PMC10724198.

Series [1] concerns Saccharomyces cerevisiae. Nature of the series: protein stability index of tFT-peptide fusion (C-terminal peptide) (PSI (0-1 scale)); higher = more stable (slower turnover). The settings on record: genetic background: wild type; temperature: 30 C.
In series [2] the test system is Saccharomyces cerevisiae. Described as above. How it is done: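 MPS profiling in S. cerevisiae of the tFT-X12 degron library: putative degron peptides plus stable controls, 12 aa, fused to the C-terminus of a sfGFP-mCherry timer. Cells are FACS-sorted into 8 mCherry/sfGFP bins and deep-sequenced. PSI runs from 0 (unstable) to 1 (stable). Backgrounds are wild type, das1Δ and doa10Δ at 30 °C, and wild type, das1Δ, cdc34-1 and cdc53-1 at 37 °C; 2-3 technical replicates each.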

[3] abbreviates: genetic background: cdc34-1, temperature: 37 C.
The mark [4] stands for this setting: genetic background: cdc53-1, temperature: 37 C.
Where [5] appears, read: genetic background: das1 deletion, temperature: 30 C.
Setting [6] is: genetic background: das1 deletion, temperature: 37 C.
[7] abbreviates: genetic background: doa10 deletion, temperature: 30 C.
[8] abbreviates: genetic background: wild type, temperature: 30 C.
Where [9] appears, read: genetic background: wild type, temperature: 37 C.

± gives the standard deviation of the averaged measurements.
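Further: PSI is a weighted mean of sequencing reads over stability bins, variants kept only with over 10 reads, mCherry proximal and sfGFP distal, peptide attached via GGGS linker.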

Regarding ACGAGFIILLGL, the protein stability index with Saccharomyces cerevisiae [1] stood at 0.535 ± 0.077; in the series on Saccharomyces cerevisiae [2] (setting [3]) it was 0.641 ± 0.086; with Saccharomyces cerevisiae [2] (setting [4]), 0.613 ± 0.014; in the series on Saccharomyces cerevisiae [2] (setting [5]), 0.524 ± 0.022; in the series with Saccharomyces cerevisiae [2] (setting [6]) it was 0.65 ± 0.015; in the series with Saccharomyces cerevisiae [2] (setting [7]), 0.571 ± 0.033. In addition, the protein stability index stood at 0.522 ± 0.019 in the series on Saccharomyces cerevisiae [2] (setting [8]) and 0.633 ± 0.008 with Saccharomyces cerevisiae [2] (setting [9]).

With ACIFDMMWFWLF, the protein stability index is 0.499 ± 0.032 in the series on Saccharomyces cerevisiae [1]; 0.692 ± 0.068 with Saccharomyces cerevisiae [2] (setting [3]); 0.721 ± 0.008 with Saccharomyces cerevisiae [2] (setting [4]); 0.577 ± 0.034 in the series with Saccharomyces cerevisiae [2] (setting [5]); 0.75 ± 0.0093 in the series on Saccharomyces cerevisiae [2] (setting [6]); 0.427 ± 0.02 in the series with Saccharomyces cerevisiae [2] (setting [7]). Moreover, the figures for the protein stability index in the series on Saccharomyces cerevisiae [2] (setting [8]) and with Saccharomyces cerevisiae [2] (setting [9]) were 0.46 ± 0.02 and 0.573 ± 0.006, respectively.

For ACLLCVCVESRE, the protein stability index with Saccharomyces cerevisiae [1] came out at 0.494 ± 0.013; in the series on Saccharomyces cerevisiae [2] (setting [3]) it was 0.531 ± 0.045; with Saccharomyces cerevisiae [2] (setting [4]) it was 0.575 ± 0.053; with Saccharomyces cerevisiae [2] (setting [5]), 0.414 ± 0.03; in the series with Saccharomyces cerevisiae [2] (setting [6]), 0.61303 ± 0.00036; in the series on Saccharomyces cerevisiae [2] (setting [7]) it was 0.38 ± 0.016. Also, the protein stability index in the series with Saccharomyces cerevisiae [2] (setting [8]) was determined as 0.41 ± 0.015; with Saccharomyces cerevisiae [2] (setting [9]), 0.5691 ± 0.0014.

Take AELLMLRIFFLF: the protein stability index in the series with Saccharomyces cerevisiae [1] amounted to 0.132 ± 0.027; in the series on Saccharomyces cerevisiae [2] (setting [3]), 0.281 ± 0.0063; with Saccharomyces cerevisiae [2] (setting [4]) it was 0.48 ± 0.036; in the series on Saccharomyces cerevisiae [2] (setting [5]), 0.333 ± 0.019; in the series on Saccharomyces cerevisiae [2] (setting [6]), 0.491 ± 0.022; in the series on Saccharomyces cerevisiae [2] (setting [7]), 0.091 ± 0.0049. The protein stability index in the series with Saccharomyces cerevisiae [2] (setting [8]) is 0.0708 ± 0.019; in the series with Saccharomyces cerevisiae [2] (setting [9]), 0.0944 ± 0.032.

For the sequence AFFGIYLICFIV, the protein stability index in the series with Saccharomyces cerevisiae [1] was 0.207 ± 0.073; with Saccharomyces cerevisiae [2] (setting [3]) it was 0.118 ± 0.008; with Saccharomyces cerevisiae [2] (setting [4]), 0.2044 ± 0.00042; in the series on Saccharomyces cerevisiae [2] (setting [5]) it was 0.225 ± 0.024; in the series on Saccharomyces cerevisiae [2] (setting [6]), 0.382 ± 0.014; in the series on Saccharomyces cerevisiae [2] (setting [7]), 0.1711 ± 0.001. Besides, the protein stability index in the series on Saccharomyces cerevisiae [2] (setting [8]) turned out to be 0.125 ± 0.007; in the series on Saccharomyces cerevisiae [2] (setting [9]), 0.146 ± 0.013.

As to AFRFLAVCVGCG, the protein stability index in the series with Saccharomyces cerevisiae [1] was found to be 0.263 ± 0.068; in the series with Saccharomyces cerevisiae [2] (setting [3]), 0.144 ± 0.009; with Saccharomyces cerevisiae [2] (setting [4]), 0.158 ± 0.013; with Saccharomyces cerevisiae [2] (setting [5]), 0.218 ± 0.02; with Saccharomyces cerevisiae [2] (setting [6]) it was 0.291 ± 0.0069; in the series on Saccharomyces cerevisiae [2] (setting [7]) it was 0.168 ± 0.0081. In addition, the values for the protein stability index in the series with Saccharomyces cerevisiae [2] (setting [8]) and in the series with Saccharomyces cerevisiae [2] (setting [9]) were 0.205 ± 0.018 and 0.24 ± 0.0071, respectively.

In the case of AFRSPLLMLLVL, the protein stability index came out at 0.3468 ± 0.00084 with Saccharomyces cerevisiae [1]; 0.336 ± 0.0057 in the series with Saccharomyces cerevisiae [2] (setting [3]); 0.381 ± 0.0068 in the series on Saccharomyces cerevisiae [2] (setting [4]); 0.32 ± 0.028 in the series with Saccharomyces cerevisiae [2] (setting [5]); 0.426 ± 0.01 in the series on Saccharomyces cerevisiae [2] (setting [6]); 0.32 ± 0.0039 with Saccharomyces cerevisiae [2] (setting [7]). Besides, the protein stability index in the series with Saccharomyces cerevisiae [2] (setting [8]) was 0.262 ± 0.031; in the series on Saccharomyces cerevisiae [2] (setting [9]), 0.354 ± 0.0056.

For the sequence ALFISLAIWNWS, the protein stability index amounted to 0.232 ± 0.012 in the series on Saccharomyces cerevisiae [1]; 0.0849 ± 0.024 in the series on Saccharomyces cerevisiae [2] (setting [3]); 0.154 ± 0.018 in the series with Saccharomyces cerevisiae [2] (setting [4]); 0.165 ± 0.027 in the series with Saccharomyces cerevisiae [2] (setting [5]); 0.318 ± 0.01 with Saccharomyces cerevisiae [2] (setting [6]); 0.142 ± 0.011 with Saccharomyces cerevisiae [2] (setting [7]). The figures for the protein stability index in the series on Saccharomyces cerevisiae [2] (setting [8]) and in the series on Saccharomyces cerevisiae [2] (setting [9]) were 0.139 ± 0.0085 and 0.2526 ± 0.00054, respectively.

In the case of AMRTIFFPAFVS, the protein stability index in the series with Saccharomyces cerevisiae [1] was determined as 0.28 ± 0.075; in the series with Saccharomyces cerevisiae [2] (setting [3]), 0.543 ± 0.033; in the series with Saccharomyces cerevisiae [2] (setting [4]), 0.708 ± 0.0082; in the series with Saccharomyces cerevisiae [2] (setting [5]), 0.655 ± 0.0093; with Saccharomyces cerevisiae [2] (setting [6]) it was 0.743 ± 0.018; with Saccharomyces cerevisiae [2] (setting [7]) it was 0.158 ± 0.014. For the same sequence, the values for the protein stability index with Saccharomyces cerevisiae [2] (setting [8]) and with Saccharomyces cerevisiae [2] (setting [9]) were 0.157 ± 0.013 and 0.222 ± 0.0069, respectively.

Consider APGLLPPCLLVV, for which the protein stability index turned out to be 0.374 ± 0.033 in the series with Saccharomyces cerevisiae [2] (setting [3]); 0.387 ± 0.013 with Saccharomyces cerevisiae [2] (setting [4]); 0.307 ± 0.045 in the series with Saccharomyces cerevisiae [2] (setting [5]); 0.458 ± 0.014 in the series on Saccharomyces cerevisiae [2] (setting [6]); 0.263 ± 0.0047 in the series on Saccharomyces cerevisiae [2] (setting [7]); 0.3 ± 0.02 with Saccharomyces cerevisiae [2] (setting [8]). In the series with Saccharomyces cerevisiae [2] (setting [9]), this sequence displayed a protein stability index of 0.389 ± 0.0066.

With APLSPLLPPFLC, the protein stability index turned out to be 0.391 ± 0.088 in the series on Saccharomyces cerevisiae [1]; 0.693 ± 0.036 with Saccharomyces cerevisiae [2] (setting [3]); 0.729 ± 0.012 in the series with Saccharomyces cerevisiae [2] (setting [4]); 0.661 ± 0.024 with Saccharomyces cerevisiae [2] (setting [5]); 0.74816 ± 0.00015 in the series on Saccharomyces cerevisiae [2] (setting [6]); 0.3485 ± 0.0016 in the series with Saccharomyces cerevisiae [2] (setting [7]). Moreover, the protein stability index in the series on Saccharomyces cerevisiae [2] (setting [8]) worked out at 0.369 ± 0.05; in the series with Saccharomyces cerevisiae [2] (setting [9]) it was 0.595 ± 0.013.

Regarding APPPLFLIVLHL, the protein stability index with Saccharomyces cerevisiae [1] was determined as 0.424 ± 0.018; in the series on Saccharomyces cerevisiae [2] (setting [3]) it was 0.469 ± 0.0062; in the series with Saccharomyces cerevisiae [2] (setting [4]), 0.565 ± 0.0062; in the series on Saccharomyces cerevisiae [2] (setting [5]) it was 0.399 ± 0.036; in the series on Saccharomyces cerevisiae [2] (setting [6]), 0.604 ± 0.028; with Saccharomyces cerevisiae [2] (setting [7]), 0.324 ± 0.019. Moreover, the protein stability index in the series on Saccharomyces cerevisiae [2] (setting [8]) came out at 0.3 ± 0.011; in the series on Saccharomyces cerevisiae [2] (setting [9]), 0.521 ± 0.026.

As for APTMAIIVVHVR, the protein stability index amounted to 0.3059 ± 0.0021 with Saccharomyces cerevisiae [1]; 0.237 ± 0.022 in the series on Saccharomyces cerevisiae [2] (setting [3]); 0.291 ± 0.013 with Saccharomyces cerevisiae [2] (setting [4]); 0.22 ± 0.034 in the series with Saccharomyces cerevisiae [2] (setting [5]); 0.3582 ± 0.0027 with Saccharomyces cerevisiae [2] (setting [6]); 0.1859 ± 0.0016 in the series with Saccharomyces cerevisiae [2] (setting [7]). Also, the results for the protein stability index in the series on Saccharomyces cerevisiae [2] (setting [8]) and in the series with Saccharomyces cerevisiae [2] (setting [9]) were 0.207 ± 0.036 and 0.359 ± 0.019, respectively.

For ARKIGKVIPKLG, the protein stability index in the series with Saccharomyces cerevisiae [1] turned out to be 0.43 ± 0.027; in the series with Saccharomyces cerevisiae [2] (setting [3]), 0.686 ± 0.021; with Saccharomyces cerevisiae [2] (setting [4]), 0.732 ± 0.037; in the series with Saccharomyces cerevisiae [2] (setting [5]), 0.634 ± 0.043; in the series with Saccharomyces cerevisiae [2] (setting [6]) it was 0.737 ± 0.02; with Saccharomyces cerevisiae [2] (setting [7]), 0.292 ± 0.0097. Further, the protein stability index was 0.341 ± 0.039 in the series on Saccharomyces cerevisiae [2] (setting [8]) and 0.599 ± 0.011 in the series on Saccharomyces cerevisiae [2] (setting [9]).

As for ASLSSSRPPLLP, the protein stability index in the series on Saccharomyces cerevisiae [1] came to 0.746 ± 0.051; with Saccharomyces cerevisiae [2] (setting [3]) it was 0.685 ± 0.053; with Saccharomyces cerevisiae [2] (setting [4]) it was 0.752 ± 0.02; in the series with Saccharomyces cerevisiae [2] (setting [5]), 0.658 ± 0.025; with Saccharomyces cerevisiae [2] (setting [6]), 0.7114 ± 0.0024; in the series on Saccharomyces cerevisiae [2] (setting [7]), 0.644 ± 0.02. For the same sequence, the protein stability index with Saccharomyces cerevisiae [2] (setting [8]) came to 0.648 ± 0.014; with Saccharomyces cerevisiae [2] (setting [9]), 0.6962 ± 0.0011.

As for ASLVGGVLLVVV, the protein stability index in the series on Saccharomyces cerevisiae [1] stood at 0.454 ± 0.011; with Saccharomyces cerevisiae [2] (setting [3]) it was 0.495 ± 0.0051; with Saccharomyces cerevisiae [2] (setting [4]), 0.5 ± 0.012; in the series on Saccharomyces cerevisiae [2] (setting [5]), 0.346 ± 0.032; in the series with Saccharomyces cerevisiae [2] (setting [6]) it was 0.535 ± 0.0056; in the series on Saccharomyces cerevisiae [2] (setting [7]), 0.313 ± 0.017. The protein stability index was 0.352 ± 0.022 in the series on Saccharomyces cerevisiae [2] (setting [8]) and 0.502 ± 0.022 in the series with Saccharomyces cerevisiae [2] (setting [9]).

As to AWPGRLWYFWLA, the protein stability index in the series with Saccharomyces cerevisiae [1] amounted to 0.251 ± 0.14; in the series on Saccharomyces cerevisiae [2] (setting [3]) it was 0.655 ± 0.028; in the series with Saccharomyces cerevisiae [2] (setting [4]), 0.7846 ± 0.0056; with Saccharomyces cerevisiae [2] (setting [5]), 0.637 ± 0.018; with Saccharomyces cerevisiae [2] (setting [6]), 0.755 ± 0.011; in the series on Saccharomyces cerevisiae [2] (setting [7]) it was 0.189 ± 0.0052. In addition, the protein stability index came out at 0.215 ± 0.025 in the series with Saccharomyces cerevisiae [2] (setting [8]) and 0.4106 ± 0.003 with Saccharomyces cerevisiae [2] (setting [9]).

As for AYCGGRNKCTTE, the protein stability index in the series on Saccharomyces cerevisiae [1] came out at 0.701 ± 0.0081; with Saccharomyces cerevisiae [2] (setting [3]) it was 0.689 ± 0.015; in the series on Saccharomyces cerevisiae [2] (setting [4]), 0.711 ± 0.021; in the series on Saccharomyces cerevisiae [2] (setting [5]), 0.644 ± 0.034; in the series on Saccharomyces cerevisiae [2] (setting [6]), 0.744 ± 0.013; in the series with Saccharomyces cerevisiae [2] (setting [7]), 0.659 ± 0.014. Also, the protein stability index in the series with Saccharomyces cerevisiae [2] (setting [8]) was 0.643 ± 0.011; in the series on Saccharomyces cerevisiae [2] (setting [9]), 0.712 ± 0.0078.
